Article PMC3860269

Target: in vitro assembled HIV-1 CA–NC complexes bearing the capsid change N74D (HIV-1)
Test: co-sedimentation

Work on “GFP-Nup98 (from UniProt P52948 1-880) (natural protein)” yielded a fold decrease of binding against wild type CA–NC complexes of 2 fold.
